Two substances from article PMC4139157 can be followed below.

The assay addresses human plasma fibrinogen (human) (UniProt P02671). Nature of the assay: ELISA. Background: ELISA stands for enzyme-linked immunosorbent assay.
Sequence of UniProt P02671 (P02671 36-866, chain 1 of 3): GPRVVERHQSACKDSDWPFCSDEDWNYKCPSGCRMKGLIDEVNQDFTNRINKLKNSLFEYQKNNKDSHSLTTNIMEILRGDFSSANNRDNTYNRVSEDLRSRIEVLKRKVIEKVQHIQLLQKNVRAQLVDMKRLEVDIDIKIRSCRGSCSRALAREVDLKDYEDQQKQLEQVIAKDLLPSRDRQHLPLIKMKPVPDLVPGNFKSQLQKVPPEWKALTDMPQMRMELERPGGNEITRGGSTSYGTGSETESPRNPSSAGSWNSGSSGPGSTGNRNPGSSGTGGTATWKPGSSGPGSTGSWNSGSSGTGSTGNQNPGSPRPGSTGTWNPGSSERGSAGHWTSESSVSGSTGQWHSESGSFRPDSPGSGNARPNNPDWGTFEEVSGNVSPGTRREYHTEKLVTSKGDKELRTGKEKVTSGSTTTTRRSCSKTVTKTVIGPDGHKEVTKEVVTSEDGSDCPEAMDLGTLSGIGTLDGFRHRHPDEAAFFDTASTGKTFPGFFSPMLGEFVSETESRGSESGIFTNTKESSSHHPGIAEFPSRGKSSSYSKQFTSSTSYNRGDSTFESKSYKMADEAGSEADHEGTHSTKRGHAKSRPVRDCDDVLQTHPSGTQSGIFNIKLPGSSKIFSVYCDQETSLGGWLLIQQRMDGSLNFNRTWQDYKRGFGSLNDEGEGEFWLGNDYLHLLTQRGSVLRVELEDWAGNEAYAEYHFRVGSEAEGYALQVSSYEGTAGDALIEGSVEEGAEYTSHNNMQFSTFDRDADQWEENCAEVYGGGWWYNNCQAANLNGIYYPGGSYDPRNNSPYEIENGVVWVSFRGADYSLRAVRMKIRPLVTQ
Sequence of UniProt P02671 (P02675 45-491, chain 2 of 3, further chain): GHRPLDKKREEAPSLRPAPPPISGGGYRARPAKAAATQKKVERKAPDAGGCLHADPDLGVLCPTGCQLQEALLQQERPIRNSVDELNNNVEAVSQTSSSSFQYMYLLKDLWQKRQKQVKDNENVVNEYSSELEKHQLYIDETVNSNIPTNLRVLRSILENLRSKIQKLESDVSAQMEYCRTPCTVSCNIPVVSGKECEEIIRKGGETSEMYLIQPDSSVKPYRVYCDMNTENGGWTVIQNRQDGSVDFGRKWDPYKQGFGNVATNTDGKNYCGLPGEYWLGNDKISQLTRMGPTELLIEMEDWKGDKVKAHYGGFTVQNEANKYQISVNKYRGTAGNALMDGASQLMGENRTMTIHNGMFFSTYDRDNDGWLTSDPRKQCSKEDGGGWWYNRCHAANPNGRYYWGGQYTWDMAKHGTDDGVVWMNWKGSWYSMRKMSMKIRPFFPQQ
Sequence of UniProt P02671 (P02679 27-453, chain 3 of 3, further chain): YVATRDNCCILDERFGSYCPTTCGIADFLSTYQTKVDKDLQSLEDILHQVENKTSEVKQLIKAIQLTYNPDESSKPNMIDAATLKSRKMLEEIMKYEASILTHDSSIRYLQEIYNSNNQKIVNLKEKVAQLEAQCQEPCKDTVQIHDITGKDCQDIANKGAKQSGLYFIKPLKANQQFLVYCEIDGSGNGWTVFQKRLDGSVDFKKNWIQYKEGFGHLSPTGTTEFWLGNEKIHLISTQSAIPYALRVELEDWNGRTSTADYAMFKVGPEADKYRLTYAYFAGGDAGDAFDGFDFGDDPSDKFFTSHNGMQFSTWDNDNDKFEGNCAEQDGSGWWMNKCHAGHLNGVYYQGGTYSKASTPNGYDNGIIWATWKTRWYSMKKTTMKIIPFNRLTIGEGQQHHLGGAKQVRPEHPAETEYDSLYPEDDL

Usually Kd stands for the concentration at which binding is half-saturated. A high value points to lower affinity. “Histidine-tagged LigB-12 (amino acids 1029–1123 of LigB) (domain or fragment)” gave a Kd of 125 µM.

The substance “Histidine-tagged LigBCen2R (amino acids 1014–1123 of LigB) (domain or fragment)” gave a dissociation constant (Kd) of 117 µM.
